{
  "source": "paper PMC7785020",
  "about": "“A unique hormonal recognition feature of the human glucagon-like peptide-2 receptor” (Cell Research, 2020)",
  "key": {"[1]": {"molecular_target": "T1, GLP-2R R242^ECL1E (Homo sapiens, UniProt O95838, R242E)", "T1 sequence (O95838 1-553 R242E)": "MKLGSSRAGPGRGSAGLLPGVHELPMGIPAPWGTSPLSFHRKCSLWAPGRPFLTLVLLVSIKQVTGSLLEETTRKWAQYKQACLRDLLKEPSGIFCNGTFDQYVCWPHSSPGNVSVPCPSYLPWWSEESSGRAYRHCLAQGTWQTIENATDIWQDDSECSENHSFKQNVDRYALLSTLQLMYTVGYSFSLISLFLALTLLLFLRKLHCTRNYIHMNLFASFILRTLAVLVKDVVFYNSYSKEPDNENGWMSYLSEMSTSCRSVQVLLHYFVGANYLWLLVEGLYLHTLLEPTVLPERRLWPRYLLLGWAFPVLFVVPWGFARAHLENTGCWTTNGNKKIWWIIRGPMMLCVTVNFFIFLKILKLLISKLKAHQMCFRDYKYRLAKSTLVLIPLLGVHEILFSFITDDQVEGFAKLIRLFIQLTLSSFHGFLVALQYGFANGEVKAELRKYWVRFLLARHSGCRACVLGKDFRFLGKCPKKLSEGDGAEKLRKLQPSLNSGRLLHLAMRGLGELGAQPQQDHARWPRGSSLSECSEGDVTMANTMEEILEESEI", "assay": "cAMP accumulation, R242^ECL1E", "type": "cell-based", "parameters": "WT (1–553); expressed in transfected cells; HEK 293T (cAMP)", "procedure": "(§1) They were seeded onto 6-well cell culture plates and transiently transfected with different GLP-2R constructs using Lipofectamine 2000 transfection reagent (Invitrogen, Carlsbad, CA, USA). After 24 h, the transfected cells were seeded onto 384-well microtiter plates (3000 cells per well) in HBSS supplemented with 5 mM HEPES, 0.1% (w/v) bovine serum albumin (BSA) and 0.5 mM 3-isobutyl-1- methylxanthine, and stimulated with increasing concentrations of GLP-2 for 30 min at RT. Eu and Ulight were diluted by cAMP detection buffer and added to the plates separately to terminate the reaction. Plates were incubated at RT for 60 min before measuring the fluorescence intensity at 620 nm and […] by an EnVision multilabel plate reader (PerkinElmer, Boston, USA)."}, "[2]": {"molecular_target": "T2, GLP-2R W249^ECL1A (Homo sapiens, UniProt O95838, W249A)", "T2 sequence (O95838 1-553 W249A)": "T1 sequence (O95838 1-553 R242E) with E242R, W249A", "assay": "cAMP accumulation, W249^ECL1A", "type": "cell-based", "parameters": "WT (1–553); expressed in transfected cells; HEK 293T (cAMP)", "procedure": "as §1"}, "[3]": {"molecular_target": "T3, GLP-2R Y252^ECL1A (Homo sapiens, UniProt O95838, Y252A)", "T3 sequence (O95838 1-553 Y252A)": "T1 sequence (O95838 1-553 R242E) with E242R, Y252A", "assay": "cAMP accumulation, Y252^ECL1A", "type": "cell-based", "parameters": "WT (1–553); expressed in transfected cells; HEK 293T (cAMP)", "procedure": "as §1"}, "[4]": {"system": "GLP-2R", "settings": "cited from earlier work", "from_the_text": "Consistently, the truncated metabolite GLP-2(3–33) acts as a part ..."}, "[5]": {"molecular_target": "GLP-2R R242(ECL1)E (human) (UniProt O95838)"}, "[6]": {"molecular_target": "T4, GLP-2R R242(ECL1)A (human) (UniProt O95838)", "T4 sequence": "T1 sequence (O95838 1-553 R242E) with E242A"}, "[7]": {"molecular_target": "T5, GLP-2R Y252(ECL1)A (human) (UniProt O95838)", "T5 sequence": "T1 sequence (O95838 1-553 R242E) with E242R, Y252A"}, "[8]": {"molecular_target": "GLP-2R W249^ECL1A (human) (UniProt O95838)"}, "[9]": {"molecular_target": "GLP-2R (1-553) (WT) (human) (UniProt O95838)"}, "[10]": {"molecular_target": "GLP-2R R242(ECL1)E (human) (UniProt O95838)", "remark": "listed apart in the source"}, "[11]": {"molecular_target": "T4, GLP-2R R242(ECL1)A (human)", "remark": "listed apart in the source"}, "[12]": {"molecular_target": "T5, GLP-2R Y252(ECL1)A (human)", "remark": "listed apart in the source"}, "[13]": {"molecular_target": "GLP-2R W249^ECL1A (human) (UniProt O95838)", "remark": "listed apart in the source"}, "[14]": {"molecular_target": "GLP-2R (1-553) (WT) (human) (UniProt O95838)", "remark": "listed apart in the source"}, "[15]": {"molecular_target": "Human GLP-2R WT (1–553) (human) (UniProt O95838)"}, "[16]": {"molecular_target": "GLP-1R (WT) (Homo sapiens, UniProt P43220)", "sequence (P43220 24-463)": "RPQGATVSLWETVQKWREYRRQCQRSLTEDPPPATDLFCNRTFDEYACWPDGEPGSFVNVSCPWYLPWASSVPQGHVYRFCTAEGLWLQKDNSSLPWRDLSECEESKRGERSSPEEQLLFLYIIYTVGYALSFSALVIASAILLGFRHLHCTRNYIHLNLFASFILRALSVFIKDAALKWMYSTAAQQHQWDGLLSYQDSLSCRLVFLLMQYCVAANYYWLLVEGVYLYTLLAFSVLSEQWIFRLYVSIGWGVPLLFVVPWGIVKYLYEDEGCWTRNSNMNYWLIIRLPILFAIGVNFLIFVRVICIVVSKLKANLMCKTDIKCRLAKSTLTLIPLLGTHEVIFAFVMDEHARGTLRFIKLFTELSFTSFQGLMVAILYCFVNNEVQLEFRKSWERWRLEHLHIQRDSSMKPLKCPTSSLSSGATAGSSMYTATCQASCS"}},
  "note": "Numbering of substitutions follows the chain as printed.",
  "data": [
    {"molecule": "CC[C@H](C)[C@H](NC(=O)[C@H](Cc1ccccc1)NC(=O)[C@H](CCC(=O)O)NC(=O)[C@H](CCCCN)NC(=O)[C@H](C)NC(=O)[C@H](C)NC(=O)[C@H](CCC(N)=O)NC(=O)CNC(=O)[C@H](CCC(=O)O)NC(=O)[C@H](CC(C)C)NC(=O)[C@H](Cc1ccc(O)cc1)NC(=O)[C@H](CO)NC(=O)[C@H](CO)NC(=O)[C@@H](NC(=O)[C@H](CC(=O)O)NC(=O)[C@H](CO)NC(=O)[C@@H](NC(=O)[C@H](Cc1ccccc1)NC(=O)[C@@H](NC(=O)CNC(=O)[C@H](CCC(=O)O)NC(=O)[C@H](C)NC(=O)[C@@H](N)Cc1c[nH]cn1)[C@@H](C)O)[C@@H](C)O)C(C)C)C(=O)N[C@@H](C)C(=O)N[C@@H](Cc1c[nH]c2ccccc12)C(=O)N[C@@H](CC(C)C)C(=O)N[C@H](C(=O)N[C@@H](CCCCN)C(=O)NCC(=O)N[C@@H](CCCNC(=N)N)C(=O)NCC(=O)O)C(C)C", "note": "[GLP-1(1-31)]", "values": [
      {"measurement": "EC50", "setting": "[1]", "value": 2.51, "unit": "nM"},
      {"measurement": "Emax", "setting": "[1]; HEK-293T, Table S5, R242E, HEK 293T, 30 min, RT, mean ± SEM, n ≥ 3 in duplicate, read-out: cAMP Emax (% WT)", "value": "-2.2 ± 0.9", "unit": "%"},
      {"measurement": "EC50", "setting": "[2]", "value": 2.51, "unit": "nM"},
      {"measurement": "Emax", "setting": "[2]; HEK-293T, Table S5, W249A, HEK 293T, 30 min, RT, mean ± SEM, n ≥ 3 in duplicate, read-out: cAMP Emax (% WT)", "value": "-2.4 ± 0.7", "unit": "%"},
      {"measurement": "EC50", "setting": "[3]", "value": 0.631, "unit": "nM"},
      {"measurement": "Emax", "setting": "[3]; HEK-293T, Table S5, Y252A, HEK 293T, 30 min, RT, mean ± SEM, n ≥ 3 in duplicate, read-out: cAMP Emax (% WT)", "value": "-0.7 ± 1.1", "unit": "%"}
    ]},
    {"molecule": "GLP-2(3–33): truncated metabolite of GLP-2, partial agonist (DGSFSDEMNTILDNLAARDFINWLIQTKITD; Glucagon-like peptide 2; UniProt P01275 148-178, looked up, fragment)", "values": [
      {"measurement": "type of agonism (in words)", "setting": "[4]; GLP-2R", "value": "partial agonist"},
      {"measurement": "reduction in binding affinity (in words)", "setting": "[4]; vs GLP-2", "value": "great reduction in binding affinity"},
      {"measurement": "reduction in potency (in words)", "setting": "[4]; vs GLP-2", "value": "great reduction in binding affinity and potency"}
    ]},
    {"molecule": "Human GLP-2(1-33) (peptide)", "values": [
      {"measurement": "Table S5: pEC50 of GLP-2(1-33)-induced cAMP accumulation, cells transfected with the receptor mutant", "setting": "[5]", "value": "9.6 -log M"},
      {"measurement": "Table S5: pEC50 of GLP-2(1-33)-induced cAMP accumulation, cells transfected with the receptor mutant", "setting": "[6]", "value": "9.9 -log M"},
      {"measurement": "Table S5: pEC50 of GLP-2(1-33)-induced cAMP accumulation, cells transfected with the receptor mutant", "setting": "[7]", "value": "10.1 -log M"},
      {"measurement": "Table S5: pEC50 of GLP-2(1-33)-induced cAMP accumulation, cells transfected with the receptor mutant", "setting": "[8]", "value": "7.4 -log M"},
      {"measurement": "Table S5: pEC50 of GLP-2(1-33)-induced cAMP accumulation, cells transfected with the receptor (wild-type reference of the table)", "setting": "[9]", "value": "10.8 -log M"},
      {"measurement": "Table S3: pEC50 of GLP-2-induced cAMP accumulation, HEK 293T cells transfected with the receptor mutant", "setting": "[10]", "value": "9.1 -log M"},
      {"measurement": "Table S3: pEC50 of GLP-2-induced cAMP accumulation, HEK 293T cells transfected with the receptor mutant", "setting": "[11]", "value": "9.8 -log M"},
      {"measurement": "Table S3: pEC50 of GLP-2-induced cAMP accumulation, HEK 293T cells transfected with the receptor mutant", "setting": "[12]", "value": "9.8 -log M"},
      {"measurement": "Table S3: pEC50 of GLP-2-induced cAMP accumulation, HEK 293T cells transfected with the receptor mutant", "setting": "[13]", "value": "7.2 -log M"},
      {"measurement": "Table S3: pEC50 of GLP-2-induced cAMP accumulation, HEK 293T cells transfected with the receptor (wild-type reference of the table)", "setting": "[14]", "value": "10.4 -log M"}
    ]},
    {"molecule": "chimeric GLP-2/GLP-1(1–6) (peptide)", "values": [
      {"measurement": "peptide-induced cAMP accumulation for GLP-2R: fold decrease against native GLP-2", "setting": "[15]", "value": 12, "unit": "fold"}
    ]},
    {"molecule": "chimeric GLP-2/GLP-1(20–33) (peptide)", "values": [
      {"measurement": "peptide-induced cAMP accumulation for GLP-2R: fold reduction of potency", "setting": "[15]", "value": 17, "unit": "fold"}
    ]},
    {"molecule": "HADGSFTSDVSSYLEGQAARDFINWLIQTKITD", "note": "[chimeric GLP-2/GLP-1(7-19)]", "values": [
      {"measurement": "Table S5: pEC50 of cAMP accumulation induced by the chimeric peptide (7-19), cells transfected with GLP-1R (WT)", "setting": "[16]", "value": "10.9 -log M"},
      {"measurement": "Table S5: pEC50 of cAMP accumulation induced by the chimeric peptide (7-19), cells transfected with GLP-2R (WT)", "setting": "[9]", "value": "8.5 -log M"}
    ]}
  ]
}
